# Measured values: paper PMC5600358
# B1: ds59 (Pu59/Py59) (dsDNA)
# DNA 1: GGCGGCGCGGAGGGGCGGGCGCGGGAGGAAGGGGGCGGGACGGGGCTGTGGTGCCTGT
# DNA 2: ACAGGCACCACAGCCCCGTCCCGCCCCCTTCCTCCCGCGCCCGCCCCTCCGCGCCGCC
# B2: Pu59 (G-strand) (structured_DNA)
# DNA: B1 DNA 1
# B3: Py59 (C-strand) (ssDNA)
# DNA: B1 DNA 2
# Target: WT1 ZF-KTS (zinc finger domain, -KTS isoform) (Homo sapiens (cDNA from HL-60 cells), UniProt P19544 312-407+411-449, internal_change)
# Experiment: EMSA
row,Binder,binding result
1,B1,binds
2,B2,no binding
3,B3,no binding
